Measured values as given in paper PMC9138245.

Biological target: HA-ezrin fused protein (human (cDNA from HEK293T cells)) (UniProt P15311)
UniProt P15311, sequence (P15311 whole entry, the tested form may be a part): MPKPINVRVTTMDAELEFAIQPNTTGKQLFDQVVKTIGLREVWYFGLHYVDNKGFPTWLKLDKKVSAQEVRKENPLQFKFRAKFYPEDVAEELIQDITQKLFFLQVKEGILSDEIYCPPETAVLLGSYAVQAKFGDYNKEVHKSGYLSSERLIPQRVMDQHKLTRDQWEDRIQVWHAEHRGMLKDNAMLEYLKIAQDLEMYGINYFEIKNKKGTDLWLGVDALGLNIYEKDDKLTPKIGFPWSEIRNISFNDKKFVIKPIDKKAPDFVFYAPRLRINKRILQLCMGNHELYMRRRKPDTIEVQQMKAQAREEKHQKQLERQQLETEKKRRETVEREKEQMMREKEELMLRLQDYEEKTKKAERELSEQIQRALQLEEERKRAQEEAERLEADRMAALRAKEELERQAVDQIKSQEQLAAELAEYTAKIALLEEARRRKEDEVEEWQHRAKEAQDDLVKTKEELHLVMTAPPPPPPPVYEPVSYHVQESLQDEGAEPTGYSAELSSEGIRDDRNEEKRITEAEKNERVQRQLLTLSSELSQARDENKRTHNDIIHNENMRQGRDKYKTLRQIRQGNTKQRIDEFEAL

Substance: GFP-BifA fused protein (natural protein)
- ratio of p-ezrin/total-ezrin in dHL60 cells under BifA treatment (10 μg/mL purified BifA), phos-tag gel and immunoblot, 0 to 2 h (ratio p-ezrin/total-ezrin): 1
